These results are taken from PMC12667445, “Targeting RBM10‐Repressed RORB Activity in Liquid Condensates Inhibits Lysosomal Biogenesis and Neuroblastoma Progression via Affecting NF‐κB Signaling” (Advanced Science, 2025).

The experiment has as its target T1, recombinant full‐length MBP‐tagged RBM10 (human, UniProt P98175 1-930).
T1 construct: RBM10 (variant 1 is the form found in NB cells), full length; Printed domain limits: RRM1 129-209, ZF1 212-242, RRM2 300-384, ZF2 759-784, G patch 858-904; The construct and its expression host are not described in the main text; They may be in the Supporting Information; source: recombinant, purified
The experiment is described as follows: co-IP; purified recombinant GST-tagged RORB and MBP-tagged RBM10, full-length or truncated; western blot. Conditions: both partners purified.

T1 sequence (P98175 whole entry, the tested form may be a part): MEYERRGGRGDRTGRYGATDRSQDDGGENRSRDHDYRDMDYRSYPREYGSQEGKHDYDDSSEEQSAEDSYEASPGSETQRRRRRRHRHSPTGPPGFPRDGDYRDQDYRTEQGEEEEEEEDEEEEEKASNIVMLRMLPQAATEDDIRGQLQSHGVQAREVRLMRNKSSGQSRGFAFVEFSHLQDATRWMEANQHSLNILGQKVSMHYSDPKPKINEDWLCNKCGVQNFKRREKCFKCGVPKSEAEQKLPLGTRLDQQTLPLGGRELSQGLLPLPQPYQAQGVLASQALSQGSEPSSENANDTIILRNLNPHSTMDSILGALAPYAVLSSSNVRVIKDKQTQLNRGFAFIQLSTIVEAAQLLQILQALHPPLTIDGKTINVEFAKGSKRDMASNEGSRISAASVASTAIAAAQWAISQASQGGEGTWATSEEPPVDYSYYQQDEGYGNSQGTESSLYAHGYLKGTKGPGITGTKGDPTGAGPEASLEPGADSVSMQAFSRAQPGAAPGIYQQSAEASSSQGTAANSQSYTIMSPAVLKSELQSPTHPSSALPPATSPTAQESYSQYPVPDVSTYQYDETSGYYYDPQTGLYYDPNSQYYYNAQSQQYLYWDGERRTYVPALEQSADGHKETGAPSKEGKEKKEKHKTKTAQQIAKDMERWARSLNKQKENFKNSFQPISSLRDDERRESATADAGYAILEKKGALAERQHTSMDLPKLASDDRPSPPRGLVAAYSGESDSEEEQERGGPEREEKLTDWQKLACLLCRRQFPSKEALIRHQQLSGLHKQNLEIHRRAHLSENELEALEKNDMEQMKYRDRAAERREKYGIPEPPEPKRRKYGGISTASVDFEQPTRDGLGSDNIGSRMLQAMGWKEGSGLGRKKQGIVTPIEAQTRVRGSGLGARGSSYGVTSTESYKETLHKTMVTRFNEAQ

B1: recombinant full‐length GST‐tagged RORB (natural protein, UniProt Q92753-1 1-459, looked up)
chain: MRAQIEVIPCKICGDKSSGIHYGVITCEGCKGFFRRSQQNNASYSCPRQRNCLIDRTNRNRCQHCRLQKCLALGMSRDAVKFGRMSKKQRDSLYAEVQKHQQRLQEQRQQQSGEAEALARVYSSSISNGLSNLNNETSGTYANGHVIDLPKSEGYYNVDSGQPSPDQSGLDMTGIKQIKQEPIYDLTSVPNLFTYSSFNNGQLAPGITMTEIDRIAQNIIKSHLETCQYTMEELHQLAWQTHTYEEIKAYQSKSREALWQQCAIQITHAIQYVVEFAKRITGFMELCQNDQILLLKSGCLEVVLVRMCRAFNPLNNTVLFEGKYGGMQMFKALGSDDLVNEAFDFAKNLCSLQLTEEEIALFSSAVLISPDRAWLIEPRKVQKLQEKIYFALQHVIQKNHLDDETLAKLIAKIPTITAVCNLHGEKLQVFKQSHPEIVNTLFPPLYKELFNPDCATGCK
notes: The construct and its expression host are not described in the main text; They may be in the Supporting Information; source: recombinant, purified
Take B1: the binding result is listed as “binds”.
